System: MS2 coat protein
Assay: apparent KD of MS2 coat protein; designed switch direction (-1 OFF switch, 1 ON switch): -1; higher = weaker reporter binding
How it was run: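 An oligonucleotide input, 200 uM small-molecule ligand, or no input was present during titration of SNAP-549-labelled MS2 coat protein, which was doubled from 0.7 or 1.5 nM to 3 µM. Designed RNA switches had been transcribed on Illumina chips by stalled E. coli RNA polymerase. Apparent KD per design is the median over clusters of curves fitted to normalised cluster fluorescence.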

[1] = Eterna round: R95, input ligand: microRNA oligo, concentration not stated
[2] = Eterna round: R95, input ligand: FMN 200 uM
[3] = Eterna round: R95, input ligand: none
[4] = input ligand: microRNA oligo, concentration not stated

Sequence: AAUUAGUAUGUGAGGAUAUUGAUGUAAUGAUGGUUUAAGAAGGCACAUGAGGAUCACCCAUGUAGGAAAUCACG [JR_BMEx4_Sub006] (Eterna round: R97, puzzle: Brourd's mod of Exclusion 4)
- apparent KD of MS2 coat protein (input ligand: FMN 200 uM): 37.8 nM
- apparent KD of MS2 coat protein (input ligand: none): 29 nM

Sequence: CUUUAGCUAGGAUAUACAUGAGGAUCACCCAUGUUAGCGGCCAAUUGGACCGCGGGUUGUAGAAGGAGCAUUAA [Atantiza] (puzzle: Exclusion 3)
- apparent KD of MS2 coat protein [1]: 29.8 nM

Sequence: UAAAAGGCAGGAUAUGCAGAAAAGGAAACUUUUCAAGAAUGACAUGAGGAUCACCCAUGUAGAAGGGCCUUUUA [Alacar Attempt 3] (Eterna round: R97, puzzle: Exclusion 2)
- apparent KD of MS2 coat protein (input ligand: FMN 200 uM): 15.5 nM
- apparent KD of MS2 coat protein (input ligand: none): 16.2 nM

Sequence: CUGAGGUAGCGGUCCUAUGACAUGAGGAUCACCCAUGUACCUUGCUACAAGCUUUUUGCUCGUCUUAUGAUUCUCGG [JL Atriat mod 8] (puzzle: Sensor v3, turn-off variant 1)
- apparent KD of MS2 coat protein [2]: 58.1 nM
- apparent KD of MS2 coat protein [1]: 123 nM
- apparent KD of MS2 coat protein [3]: 70.2 nM

Sequence: GCGCCAUCGUGAGAUGGCGUAAUUACAUGAGGAUCACCCAUGUAGGAUAUCGAUUGCUUUGCAGUCGAGAAGGGCGUGAUAAGU [JL ENG3 3.71] (Eterna round: R96, puzzle: Exclusion NG 3)
- apparent KD of MS2 coat protein (input ligand: FMN 200 uM): 86 nM
- apparent KD of MS2 coat protein [4]: 59.5 nM
- apparent KD of MS2 coat protein (input ligand: none): 68.9 nM

Sequence: GAAAAGGUAGGAUAUACGAAAAAAAAGGGUAGAAAAAAUACACAUGAGGAUCACCCAUGUAGAAGGACCAAAAG [salish99_ex2_r3_073] (puzzle: Exclusion 2)
- apparent KD of MS2 coat protein [2]: 138 nM
- apparent KD of MS2 coat protein [1]: 23.9 nM
- apparent KD of MS2 coat protein [3]: 29.7 nM

Sequence: AGCUGUGGCCGAGGAUAUCUAUUAAUCCAAACCGAAAUAUAAUCGGACAUGAGGAUCACCCAUGUAGAGAAGGCGGUCUCAGCA [Eli eng2 - 077] (Eterna round: R96, puzzle: Exclusion NG 2)
- apparent KD of MS2 coat protein [4]: 53.5 nM

Sequence: CGAUGUUAUGUCAGGAUAUGCGUUGCGAAAGCAAUGUAGAAGGGACAUGAGGAUCACCCAUGUCCUAACCAUCG [Omei A 8] (puzzle: Brourd's mod of Exclusion 4)
- apparent KD of MS2 coat protein [2]: 15.1 nM
- apparent KD of MS2 coat protein [1]: 13 nM
- apparent KD of MS2 coat protein [3]: 13.5 nM

Sequence: GAAAAGGUAGGAUAUACGAAAAAAAAGGGUAGAUAAAAAACACAUGAGGAUCACCCAUGUAGAAGGACCAAAAG [salish99_ex2_r3_078] (puzzle: Exclusion 2)
- apparent KD of MS2 coat protein [2]: 101 nM
- apparent KD of MS2 coat protein [1]: 41.8 nM
- apparent KD of MS2 coat protein [3]: 29.3 nM

Sequence: AGAUGUUAAGAGGAUAUCAGCCGAAACCGGCAGUGAGAAGGCUUGACAUGAGGAUCACCCAUGUUUUGCGGUAA [Intebiabe] (Eterna round: R97, puzzle: Exclusion 6)
- apparent KD of MS2 coat protein (input ligand: FMN 200 uM): 300 nM
- apparent KD of MS2 coat protein (input ligand: none): 35.6 nM

Sequence: ACAAGCUUUUUGUUCGUCUUAUAAAAUCCUAAGAGGAAAACAUGAGGAUCACCCAUGUAACAAAGACGGACUCAUGU [Sesor Array 12 - Jieux - Sensor v3, turn-off variant 2] (puzzle: Sensor v3, turn-off variant 2)
- apparent KD of MS2 coat protein [2]: 13.4 nM
- apparent KD of MS2 coat protein [1]: 125 nM
- apparent KD of MS2 coat protein [3]: 10.8 nM

Sequence: CAAGAAUCUAUAUAAAGGCACAUGAGGAUCACCCAUGUGGUCCGUAAAAUCAUGCGACAAGCCAUUUGCUCGUCGUG [Eternabot (L2) Solution 30] (Eterna round: R97, puzzle: Sensor, turn-off variant 1)
- apparent KD of MS2 coat protein (input ligand: FMN 200 uM): 33.2 nM
- apparent KD of MS2 coat protein (input ligand: none): 37.6 nM

Sequence: AAUUCACAUGAGGAUCACCCAUGUCAGGAUAUGGUUUCACGUGUUUCGGUGCUUGAGGCCAGAAGGGACAGCUA (puzzle: Exclusion 1)
- apparent KD of MS2 coat protein [1]: 62.4 nM

Sequence: UAGCAUUGCCUUUGGUAGUGCUUUACAUGAGGAUCACCCAUGUAGGAUAUGGUCGGCUUUGCUGACCAGAAGGACAUGUGUAUU [MOD ENG3 1.04 by JL] (Eterna round: R96, puzzle: Exclusion NG 3)
- apparent KD of MS2 coat protein (input ligand: FMN 200 uM): 130 nM
- apparent KD of MS2 coat protein [4]: 94.4 nM
- apparent KD of MS2 coat protein (input ligand: none): 80.7 nM

Sequence: UAGGCGUAAGGAUAUAUCUUUGGACGAGCGAGGGACCAGAGAUAGAAGGUACAUGAGGAUCACCCAUGUGGGUC [Eternabot (L1) Solution 41] (Eterna round: R97, puzzle: Exclusion 4)
- apparent KD of MS2 coat protein (input ligand: FMN 200 uM): 189 nM
- apparent KD of MS2 coat protein (input ligand: none): 64.9 nM

Sequence: UACAUGAGGAUCACCCAUGUUUUGUCGUGUAUGGUAUUUAUCUAGGAUAUCAUUUUAGUUAGUUAUGAGAAGGAGAAUAUUAAU [JMF's solution 88] (Eterna round: R96, puzzle: Exclusion NG 3)
- apparent KD of MS2 coat protein [4]: 26.4 nM

Sequence: UGAGUGCUGCGAGGAUAUACAUGAGGAUCACCCAUGUGGAUGUCUGAGGCUUUGCCUCAGACGAUGUAGAAGGCGCAGUACUCU [JL ENG2 1.20] (Eterna round: R96, puzzle: Exclusion NG 2)
- apparent KD of MS2 coat protein (input ligand: FMN 200 uM): 100 nM
- apparent KD of MS2 coat protein [4]: 15.2 nM
- apparent KD of MS2 coat protein (input ligand: none): 22.1 nM

Sequence: GAUUAUGCGAGCUUUAGGGACAUGAGGAUCACCCAUGUUCGUCUUAUUGGUCUGAAUACACUAACAUACCUAAAUCU [JMF 11] (puzzle: Sensor v3, turn-off variant 1)
- apparent KD of MS2 coat protein [2]: 17.4 nM
- apparent KD of MS2 coat protein [1]: 33.7 nM
- apparent KD of MS2 coat protein [3]: 21.7 nM

Sequence: GUACUGACAGGAUAUACAUGAGGAUCACCCAUGUGCCUUAAUGCUACAAAAGUAGCGAGUAGAAGGGUCUGUAC [Omei Ex3 Model Bachelor's Dilema v12] (Eterna round: R97, puzzle: Exclusion 3)
- apparent KD of MS2 coat protein (input ligand: FMN 200 uM): 119 nM
- apparent KD of MS2 coat protein (input ligand: none): 20.7 nM

Sequence: GAUCAUGCAGGAUAUACAUAAACCAUGAAAACAUGGAUCAAACAUGAGGAUCACCCAUGUAGAAGGGCAUGAUC [Omei Ex2 A20] (Eterna round: R97, puzzle: Exclusion 2)
- apparent KD of MS2 coat protein (input ligand: FMN 200 uM): 42 nM
- apparent KD of MS2 coat protein (input ligand: none): 24.1 nM

Sequence: CUCUUGUCAGGAUAUCUUACAUAACAAUCGUAGUUACAAUUGGAGAAGGGACAUGAGGAUCACCCAUGUUAGCG [tap-tap-tappy34] (Eterna round: R97, puzzle: Exclusion 4)
- apparent KD of MS2 coat protein (input ligand: FMN 200 uM): 337 nM
- apparent KD of MS2 coat protein (input ligand: none): 149 nM

Sequence: AGAUGCUCGAGUCGACAUGAGGAUCACCCAUGUACAGUUAAUGAGGAUAUCUGAGACAAAUAGUAGGAGAAGGCGUGAACAUGA [Ex NG3 #11] (Eterna round: R96, puzzle: Exclusion NG 3)
- apparent KD of MS2 coat protein (input ligand: FMN 200 uM): 191 nM
- apparent KD of MS2 coat protein [4]: 68.6 nM
- apparent KD of MS2 coat protein (input ligand: none): 90.9 nM

Sequence: GUCAUCACACAUGGGAUCAACAUGAGGAUCACCCAUGUUGCCAAGUUGUUUGCACGUCUUAUAAUACGUUUUUCGAG [Mod-Jxg] (Eterna round: R97, puzzle: Sensor, turn-off variant 1)
- apparent KD of MS2 coat protein (input ligand: FMN 200 uM): 21.6 nM
- apparent KD of MS2 coat protein (input ligand: none): 28.2 nM

Sequence: ACAGCGUGAGGAUAUACAUGAGGAUCACCCAUGUAUGGCAGGUUAUCCUGUCGUAUGUGUAGAAGGCACGCUGU [Exclusion 3 - Oddities v.3 ( A small slide from ms2 to fmn)] (puzzle: Exclusion 3)
- apparent KD of MS2 coat protein [1]: 50.8 nM

Sequence: GGUAGAGAGCAGGAUAUCUUGGGUAAGUAUUGUAGAGAAGGGCUCACAUGAGGAUCACCCAUGUGGUCCAAGAU [JL Dibiri mod 06] (puzzle: Exclusion 6)
- apparent KD of MS2 coat protein [1]: 12.8 nM

Sequence: UGUACGAUGCGUGCUGACAUGCGUCGUGCAGCAGGUGGAACAUGAGGAUCACCCAUGUCCUCAUUUGCUCGUCUUAU [Mat - Sensor v3 - Turn-off var 2 - D21] (puzzle: Sensor v3, turn-off variant 2)
- apparent KD of MS2 coat protein [2]: 35.2 nM
- apparent KD of MS2 coat protein [1]: 155 nM
- apparent KD of MS2 coat protein [3]: 34.6 nM

Sequence: GGAUCGAGAGUGAGGAUAUGCUGGUCCUUGGAUCAGCAGAAGGCACAUGAGGAUCACCCAUGUGAUUUCGAUCC [Mat - Exclusion 4 - Eli Mod - D40] (Eterna round: R97, puzzle: Brourd's mod of Exclusion 4)
- apparent KD of MS2 coat protein (input ligand: FMN 200 uM): 34.6 nM
- apparent KD of MS2 coat protein (input ligand: none): 18.1 nM

Sequence: CAUAGUUGCUCAGGAUAUCAUACAUGAGGAUCACCCAUGUAAUAAAUGAGAAUUUCGAAUGUAAAUGAGAAGGGAGAAAUCUAC [Ostracism 60 - Jieux - Exclusion NG 2] (Eterna round: R96, puzzle: Exclusion NG 2)
- apparent KD of MS2 coat protein (input ligand: FMN 200 uM): 22.5 nM
- apparent KD of MS2 coat protein [4]: 11.6 nM
- apparent KD of MS2 coat protein (input ligand: none): 14.4 nM

Sequence: ACAUUACAUGAGGAUCACCCAUGUGAGGAUAUGGAGCGAGACUGUCCUGUCGCGUACACCAGAAGGCGCGGGUG [1st #51] (Eterna round: R97, puzzle: Exclusion 1)
- apparent KD of MS2 coat protein (input ligand: FMN 200 uM): 115 nM
- apparent KD of MS2 coat protein (input ligand: none): 131 nM

Sequence: GAGGAUGUAGGAUAUACUUAGGGUGAGCUCUAAGUGAAUCAACAUGAGGAUCACCCAUGUAGAAGGGCAGGACG [Eternabot (Original) Solution 37] (Eterna round: R97, puzzle: Exclusion 2)
- apparent KD of MS2 coat protein (input ligand: FMN 200 uM): 248 nM
- apparent KD of MS2 coat protein (input ligand: none): 122 nM

Sequence: CUUCAUCCACCAGAGCUCACACUUAUACCUGCUCUGGUGACAUGAGGAUCACCCAUGUUUUUUGCCCGUCUUAUCUU [Sensor v3, turn-off variant 2 (MOD of Leso)] (puzzle: Sensor v3, turn-off variant 2)
- apparent KD of MS2 coat protein [2]: 149 nM
- apparent KD of MS2 coat protein [1]: 19.8 nM
- apparent KD of MS2 coat protein [3]: 207 nM

Sequence: GGUUGGCGAGGAUAUACAUGAGGAUCACCCAUGUGGUCCUGAGAUAGAAUAGCCCUUUGUAGAAGGCGCGGGUC [salish99_ex3_r4_044] (Eterna round: R97, puzzle: Exclusion 3)
- apparent KD of MS2 coat protein (input ligand: FMN 200 uM): 203 nM
- apparent KD of MS2 coat protein (input ligand: none): 166 nM

Sequence: AGAUCACAUGAGGAUCACCCAUGUGAGGAUAUAGAUUCAAGAGCUUCGGCUCUACAGUCUAGAAGGCACUAUGA [EX1 #46] (Eterna round: R97, puzzle: Exclusion 1)
- apparent KD of MS2 coat protein (input ligand: FMN 200 uM): 30.4 nM
- apparent KD of MS2 coat protein (input ligand: none): 25.7 nM

Sequence: CAUUAGCGAGGAUAUACAUGAGGAUCACCCAUGUGAUCCUAAGGCUGAUGAAGCCUAUGUAGAAGGCGCAAAUU [jl-ex3.4.54 ViennaUCT mod] (Eterna round: R97, puzzle: Exclusion 3)
- apparent KD of MS2 coat protein (input ligand: FMN 200 uM): 107 nM
- apparent KD of MS2 coat protein (input ligand: none): 42.2 nM

— the supplement of paper PMC9170038
